Data on 9 molecules can be found in publication PMC5889392, “Cryptic glucocorticoid receptor-binding sites pervade genomic NF-κB response elements”.

The target in series [1] is T1, full-length GR (Homo sapiens, UniProt P04150 1-777). Kind of series: fluorescence polarization. The note with it: triamcinolone acetonide; Fig. 2d legend gives 35 nM; FP: 10 nM 6-FAM dsDNA, 100 mM NaCl, 20 mM Tris-HCl pH 7.4, 5% glycerol, temperature not stated; NMR: 20 mM phosphate pH 6.7, 100 mM NaCl, 1 mM TCEP, 10% D2O …. (Fluorescence polarisation rises when a labelled molecule tumbles more slowly, as on binding a larger partner.)

Series [2] has as its target T2, GR DBD (Homo sapiens, UniProt P04150 417-506). Kind of series: X-ray crystallography; 2.40 A refinement; FP: 10 nM 6-FAM dsDNA, 100 mM NaCl, 20 mM Tris-HCl pH 7.4, 5% glycerol, temperature not stated; NMR: 20 mM phosphate pH 6.7, 100 mM NaCl, 1 mM TCEP, 10% D2O, 10 and 25 C (NOESY), 25 C (HSQC). The note with it: protein: recombinant; tags: N-terminal 6xHis with TEV site.

The target of series [3] is T2, GR DBD. Kind of series: X-ray crystallography; 2.25 A; FP: 10 nM 6-FAM dsDNA, 100 mM NaCl, 20 mM Tris-HCl pH 7.4, 5% glycerol, temperature not stated; NMR: 20 mM phosphate pH 6.7, 100 mM NaCl, 1 mM TCEP, 10% D2O, 10 and 25 C (NOESY), 25 C (HSQC). The following applies: protein: recombinant; tags: N-terminal 6xHis with TEV site.
For series [4], the target named is T2, GR DBD. Kind of series: X-ray crystallography; 2.20 A; FP: 10 nM 6-FAM dsDNA, 100 mM NaCl, 20 mM Tris-HCl pH 7.4, 5% glycerol, temperature not stated; NMR: 20 mM phosphate pH 6.7, 100 mM NaCl, 1 mM TCEP, 10% D2O, 10 and 25 C (NOESY), 25 C (HSQC). The following applies: protein: recombinant; tags: N-terminal 6xHis with TEV site.
Series [5] addresses T2, GR DBD. Kind of series: X-ray crystallography; 1.85 A; FP: 10 nM 6-FAM dsDNA, 100 mM NaCl, 20 mM Tris-HCl pH 7.4, 5% glycerol, temperature not stated; NMR: 20 mM phosphate pH 6.7, 100 mM NaCl, 1 mM TCEP, 10% D2O, 10 and 25 C (NOESY), 25 C (HSQC). The following applies: protein: recombinant; tags: N-terminal 6xHis with TEV site.
Series [6] has as its target T2, GR DBD. Briefly: fluorescence polarization; two-site binding curve; Kd in Supplementary Table 5; FP: 10 nM 6-FAM dsDNA, 100 mM NaCl, 20 mM Tris-HCl pH 7.4, 5% glycerol, temperature not stated; NMR: 20 mM phosphate pH 6.7, 100 mM NaCl, 1 mM TCEP, 10% D2O, 10 and 25 C (NOESY), 25 C (HSQC). The note with it: protein: recombinant, tags: N-terminal 6xHis with TEV site, blunt.

The target in series [7] is T1, full-length GR. Kind of series: fluorescence polarization; triamcinolone acetonide; FP: 10 nM 6-FAM dsDNA, 100 mM NaCl, 20 mM Tris-HCl pH 7.4, 5% glycerol, temperature not stated; NMR: 20 mM phosphate pH 6.7, 100 mM NaCl, 1 mM TCEP, 10% D2O, 10 and 25 C (NOESY), 25 C (HSQC). The note with it: protein: recombinant; tags: N-terminal 6xHis; chain copies: 2; label: 5'-FAM on strand 1; blunt.

T2 sequence (P04150 417-506): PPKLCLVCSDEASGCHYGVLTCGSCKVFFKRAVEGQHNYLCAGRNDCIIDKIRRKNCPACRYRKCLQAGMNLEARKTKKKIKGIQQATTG
T1 sequence (P04150 whole entry): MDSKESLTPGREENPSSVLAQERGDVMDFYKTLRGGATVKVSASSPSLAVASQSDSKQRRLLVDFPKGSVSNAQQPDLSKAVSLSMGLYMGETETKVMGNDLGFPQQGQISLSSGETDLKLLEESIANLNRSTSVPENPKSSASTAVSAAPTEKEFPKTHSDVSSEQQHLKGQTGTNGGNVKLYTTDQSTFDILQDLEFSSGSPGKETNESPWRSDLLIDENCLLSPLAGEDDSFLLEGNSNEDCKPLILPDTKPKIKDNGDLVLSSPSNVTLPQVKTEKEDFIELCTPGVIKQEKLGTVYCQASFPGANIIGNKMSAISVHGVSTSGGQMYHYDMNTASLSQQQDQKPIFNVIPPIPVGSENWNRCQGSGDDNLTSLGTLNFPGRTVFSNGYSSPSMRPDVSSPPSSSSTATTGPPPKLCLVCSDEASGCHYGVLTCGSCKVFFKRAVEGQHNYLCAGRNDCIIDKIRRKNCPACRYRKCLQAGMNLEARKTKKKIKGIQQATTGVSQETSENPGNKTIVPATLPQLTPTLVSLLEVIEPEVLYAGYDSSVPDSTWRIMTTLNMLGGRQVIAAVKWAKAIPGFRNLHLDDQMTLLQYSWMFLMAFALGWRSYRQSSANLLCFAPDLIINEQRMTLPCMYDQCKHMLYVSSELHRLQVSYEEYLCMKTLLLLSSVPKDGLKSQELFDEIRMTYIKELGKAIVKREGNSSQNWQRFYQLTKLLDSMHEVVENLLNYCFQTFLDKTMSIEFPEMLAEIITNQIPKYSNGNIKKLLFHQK

Broadly, the Kd is the equilibrium constant for the complex coming apart. In the series with full-length GR [1], SGK1 (+)GRE registered a Kd of 34 nM.

B1: ICAM1 kBRE 16 bp crystal DNA (dsDNA)
DNA 1: TTGGAAATTCCGGAGC
DNA 2: GCTCCGGAATTTCCAA
As for B1, the binding result with GR DBD [2] is recorded as “binds”.

B2: RELB kBRE 16 bp crystal DNA (dsDNA)
DNA 1: CCGGGGAATTCCGCCG
DNA 2: CGGCGGAATTCCCCGG
B2: in the series with GR DBD [3], the binding result is given as “binds”.

B3: PLAU kBRE 16 bp crystal DNA (dsDNA)
DNA 1: ATCAGGAAATTTCCAG
DNA 2: CTGGAAATTTCCTGAT
Take B3: the binding result with GR DBD [4] is “binds”.

B4: IL8 kBRE 16 bp crystal DNA (dsDNA)
DNA 1: ATCGTGGAATTTCCTC
DNA 2: GAGGAAATTCCACGAT
On to B4, for which the binding result with GR DBD [5] is on record as “binds”.

B5: CCL2 kBRE 16 bp crystal DNA (dsDNA)
DNA 1: AGTGGGAATTTCCACT
DNA 2: AGTGGAAATTCCCACT
Consider B5, for which the binding result in the series with GR DBD [4] is reported as “binds”.

B6: CCL2 kBRE (dsDNA)
DNA 1: GAGTGGGAATTTCCACTCA
DNA 2: TGAGTGGAAATTCCCACTC
As for B6, in the series with GR DBD [6], the binding result is on record as “binds”.

B7: PLAU kBRE (dsDNA)
DNA 1: CCCTGGGAATTTCCTGATA
DNA 2: TATCAGGAAATTCCCAGGG
B7: the binding result with GR DBD [6] (label: 5'-FAM on strand 1) is “binds”.

B8: IL8 kBRE (dsDNA)
DNA 1: AATCGTGGAATTTCCTCTG
DNA 2: CAGAGGAAATTCCACGATT
Consider B8, for which the Kd with full-length GR [7] was determined as 51 nM.
